Values belong to the binder of their own block, whether it stands above or below them.
How the values were obtained:
[1] = biological target: T1, CHIP (carboxyl terminus of heat shock 70-interacting protein), recombinant His-tagged wild type (human), Q9UNE7; experiment: SEC-MALS; GE Superdex 200 column with Wyatt DAWN HELEOS-II and T-Rex refractometer; 100 μl of 0.5 mg/ml of each sample loaded; oligomeric species of each CHIP protein; conditions: remark: other sources report otherwise
T1 chain: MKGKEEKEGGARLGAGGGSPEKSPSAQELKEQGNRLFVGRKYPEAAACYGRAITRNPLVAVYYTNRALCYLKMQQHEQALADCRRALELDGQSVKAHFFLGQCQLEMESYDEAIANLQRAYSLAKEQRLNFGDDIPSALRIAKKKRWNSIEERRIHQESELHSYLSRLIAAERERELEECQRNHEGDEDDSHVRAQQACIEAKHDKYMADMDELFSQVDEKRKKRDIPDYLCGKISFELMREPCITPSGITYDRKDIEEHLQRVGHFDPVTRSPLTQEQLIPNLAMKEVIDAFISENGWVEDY

[2] = biological target: T2, CHIP-K30A, recombinant His-tagged (human), Q9UNE7; experiment: as above; conditions: remark: other sources report otherwise
T2 chain: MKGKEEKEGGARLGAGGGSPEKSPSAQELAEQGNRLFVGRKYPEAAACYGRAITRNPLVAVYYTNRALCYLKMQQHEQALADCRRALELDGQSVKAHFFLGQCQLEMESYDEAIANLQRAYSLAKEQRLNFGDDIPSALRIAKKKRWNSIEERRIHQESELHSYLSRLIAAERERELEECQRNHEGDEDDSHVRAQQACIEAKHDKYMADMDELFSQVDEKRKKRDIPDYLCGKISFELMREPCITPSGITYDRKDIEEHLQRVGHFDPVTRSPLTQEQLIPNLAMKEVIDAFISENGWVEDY

[3] = biological target: T3, myc-CHIP-K30A (pcDNA3-mycCHIP-K30A) (human), Q9UNE7; experiment: native gel or EMSA; blue native PAGE (4-16% NativePAGE) of fresh lysates of transfected COS-7 cells, immunoblot with anti-myc; conditions: remark: other sources report otherwise
T3 chain: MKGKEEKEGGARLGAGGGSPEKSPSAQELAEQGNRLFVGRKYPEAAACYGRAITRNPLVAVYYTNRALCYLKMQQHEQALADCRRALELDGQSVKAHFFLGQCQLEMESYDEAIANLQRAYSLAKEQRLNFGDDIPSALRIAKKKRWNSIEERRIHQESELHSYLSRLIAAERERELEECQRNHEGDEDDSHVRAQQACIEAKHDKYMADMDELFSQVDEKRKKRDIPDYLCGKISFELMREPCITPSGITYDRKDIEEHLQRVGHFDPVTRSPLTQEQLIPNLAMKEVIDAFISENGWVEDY

[4] = biological target: T4, myc-CHIP wild type (pcDNA3-mycCHIP) (human), Q9UNE7; experiment: as above; conditions: remark: other sources report otherwise
T4 chain: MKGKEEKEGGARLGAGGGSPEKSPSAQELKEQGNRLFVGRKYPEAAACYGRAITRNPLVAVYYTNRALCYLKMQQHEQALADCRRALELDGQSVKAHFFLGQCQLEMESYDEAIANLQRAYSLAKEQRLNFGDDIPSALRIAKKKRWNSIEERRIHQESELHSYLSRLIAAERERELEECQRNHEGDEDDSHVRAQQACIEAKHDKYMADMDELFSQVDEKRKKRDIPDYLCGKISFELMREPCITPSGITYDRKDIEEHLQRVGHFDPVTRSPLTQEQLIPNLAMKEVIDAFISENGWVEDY

[5] = biological target: the molecule itself; experiment: SEC-MALS; GE Superdex 200 column with Wyatt DAWN HELEOS-II and T-Rex refractometer; 100 μl of 0.5 mg/ml of each sample loaded; oligomeric species of each CHIP protein

B1: CHIP (carboxyl terminus of heat shock 70-interacting protein), recombinant His-tagged wild type, Q9UNE7 1-303 (enzyme)
chain: MKGKEEKEGGARLGAGGGSPEKSPSAQELKEQGNRLFVGRKYPEAAACYGRAITRNPLVAVYYTNRALCYLKMQQHEQALADCRRALELDGQSVKAHFFLGQCQLEMESYDEAIANLQRAYSLAKEQRLNFGDDIPSALRIAKKKRWNSIEERRIHQESELHSYLSRLIAAERERELEECQRNHEGDEDDSHVRAQQACIEAKHDKYMADMDELFSQVDEKRKKRDIPDYLCGKISFELMREPCITPSGITYDRKDIEEHLQRVGHFDPVTRSPLTQEQLIPNLAMKEVIDAFISENGWVEDY
percent of the protein as 2mer [1]: 69.7%
percent of the protein as 4mer [1]: 25.2%
percent of the protein as 6mer [1]: 4.8%
stoichiometry N [1]: 2

B4: myc-CHIP wild type (pcDNA3-mycCHIP), Q9UNE7 1-303 (enzyme)
chain: MKGKEEKEGGARLGAGGGSPEKSPSAQELKEQGNRLFVGRKYPEAAACYGRAITRNPLVAVYYTNRALCYLKMQQHEQALADCRRALELDGQSVKAHFFLGQCQLEMESYDEAIANLQRAYSLAKEQRLNFGDDIPSALRIAKKKRWNSIEERRIHQESELHSYLSRLIAAERERELEECQRNHEGDEDDSHVRAQQACIEAKHDKYMADMDELFSQVDEKRKKRDIPDYLCGKISFELMREPCITPSGITYDRKDIEEHLQRVGHFDPVTRSPLTQEQLIPNLAMKEVIDAFISENGWVEDY
stoichiometry N [4]: 2

B5: CHIP-T246M, recombinant His-tagged (enzyme, human, UniProt Q9UNE7 1-303, looked up)
chain: MKGKEEKEGGARLGAGGGSPEKSPSAQELKEQGNRLFVGRKYPEAAACYGRAITRNPLVAVYYTNRALCYLKMQQHEQALADCRRALELDGQSVKAHFFLGQCQLEMESYDEAIANLQRAYSLAKEQRLNFGDDIPSALRIAKKKRWNSIEERRIHQESELHSYLSRLIAAERERELEECQRNHEGDEDDSHVRAQQACIEAKHDKYMADMDELFSQVDEKRKKRDIPDYLCGKISFELMREPCIMPSGITYDRKDIEEHLQRVGHFDPVTRSPLTQEQLIPNLAMKEVIDAFISENGWVEDY
notes: CHIP (gene STUB1), full-length protein with the SCAR16 patient mutation p.T246M in the U-box; T246M is a mutation found in SCAR16 patients; source: Escherichia coli BL21(DE3), purified (HisTrap HP)
stoichiometry N [5]: 10 to 12

Results, then the binder that gave them:

percent of the protein as 2mer [2]: 80.4%
percent of the protein as 4mer [2]: 16.4%
percent of the protein as 6mer [2]: 2.6%
stoichiometry N [2]: 2
B2: CHIP-K30A, recombinant His-tagged, Q9UNE7 1-303 (enzyme)
chain: MKGKEEKEGGARLGAGGGSPEKSPSAQELAEQGNRLFVGRKYPEAAACYGRAITRNPLVAVYYTNRALCYLKMQQHEQALADCRRALELDGQSVKAHFFLGQCQLEMESYDEAIANLQRAYSLAKEQRLNFGDDIPSALRIAKKKRWNSIEERRIHQESELHSYLSRLIAAERERELEECQRNHEGDEDDSHVRAQQACIEAKHDKYMADMDELFSQVDEKRKKRDIPDYLCGKISFELMREPCITPSGITYDRKDIEEHLQRVGHFDPVTRSPLTQEQLIPNLAMKEVIDAFISENGWVEDY

stoichiometry N [3]: 2
B3: myc-CHIP-K30A (pcDNA3-mycCHIP-K30A), Q9UNE7 1-303 (enzyme)
chain: MKGKEEKEGGARLGAGGGSPEKSPSAQELAEQGNRLFVGRKYPEAAACYGRAITRNPLVAVYYTNRALCYLKMQQHEQALADCRRALELDGQSVKAHFFLGQCQLEMESYDEAIANLQRAYSLAKEQRLNFGDDIPSALRIAKKKRWNSIEERRIHQESELHSYLSRLIAAERERELEECQRNHEGDEDDSHVRAQQACIEAKHDKYMADMDELFSQVDEKRKKRDIPDYLCGKISFELMREPCITPSGITYDRKDIEEHLQRVGHFDPVTRSPLTQEQLIPNLAMKEVIDAFISENGWVEDY

Reference: paper PMC6160236, “Disrupted structure and aberrant function of CHIP mediates the loss of motor and cognitive function in preclinical models of SCAR16” (PLoS Genetics, 2018)
